According to article PMC9800341, “THOC5 complexes with DDX5, DDX17, and CDK12 to regulate R loop structures and transcription elongation rate”:

T1: THOC6-FLAG (UniProt Q86W42 1-341)
T1 sequence: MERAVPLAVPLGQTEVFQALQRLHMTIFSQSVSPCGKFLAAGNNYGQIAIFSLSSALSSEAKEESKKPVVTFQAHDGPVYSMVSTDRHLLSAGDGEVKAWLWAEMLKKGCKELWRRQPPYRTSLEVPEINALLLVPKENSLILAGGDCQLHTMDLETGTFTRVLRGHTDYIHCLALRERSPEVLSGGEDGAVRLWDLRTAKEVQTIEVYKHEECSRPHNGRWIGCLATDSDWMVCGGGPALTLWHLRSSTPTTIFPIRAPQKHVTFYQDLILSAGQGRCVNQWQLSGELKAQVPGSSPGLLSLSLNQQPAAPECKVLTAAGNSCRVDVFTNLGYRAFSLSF

T2: GST-THOC6 WT (UniProt Q86W42 1-341)
T2 sequence: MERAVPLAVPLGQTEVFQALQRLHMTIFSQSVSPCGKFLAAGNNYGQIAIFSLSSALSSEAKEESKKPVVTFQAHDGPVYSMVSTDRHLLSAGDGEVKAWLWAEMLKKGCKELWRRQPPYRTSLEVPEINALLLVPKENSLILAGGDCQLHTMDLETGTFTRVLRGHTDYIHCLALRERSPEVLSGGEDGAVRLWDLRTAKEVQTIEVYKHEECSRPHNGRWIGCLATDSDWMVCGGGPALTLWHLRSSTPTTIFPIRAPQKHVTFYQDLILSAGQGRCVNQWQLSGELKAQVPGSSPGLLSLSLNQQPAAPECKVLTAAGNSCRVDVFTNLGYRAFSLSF


What was measured:
THOC6-FLAG [1] = biological target: T1, THOC6-FLAG; test: streptavidin pull-down; 4 C overnight or 37 C; EMSA: 20 mM Tris pH 7.5, 2 mM DTT, 12 mM MgCl2, 100 mM NaCl, 10% glycerol, 30 min RT; pull-downs: 4 C overnight or 37 C 2 h (Fig S5A: 4 h), buffer not given in; settings: protein: recombinant; tags: C-terminal FLAG (DYK); label: 5' biotin on DNA or RNA strand; blunt
THOC6-FLAG [2] = biological target: T1, THOC6-FLAG; test: streptavidin pull-down; 4 C overnight or 37 C 2 h; EMSA: 20 mM Tris pH 7.5, 2 mM DTT, 12 mM MgCl2, 100 mM NaCl, 10% glycerol, 30 min RT; pull-downs: 4 C overnight or 37 C 2 h (Fig S5A: 4 h), buffer not given in; settings: protein: recombinant; tags: C-terminal FLAG (DYK); label: 5' biotin on DNA or RNA strand; blunt
GST-THOC6 WT = biological target: T2, GST-THOC6 WT; test: streptavidin pull-down; EMSA: 20 mM Tris pH 7.5, 2 mM DTT, 12 mM MgCl2, 100 mM NaCl, 10% glycerol, 30 min RT; pull-downs: 4 C overnight or 37 C 2 h (Fig S5A: 4 h), buffer not given in; settings: protein: recombinant; tags: GST (pGEX-4T1), FLAG; label: 5' biotin on DNA or RNA strand; blunt

Binder	binding result (THOC6-FLAG [1])	binding result (THOC6-FLAG [2])	binding result (GST-THOC6 WT)
OSD (OS4D; OS-ssDNA + OS-ssRNA) (DNA:RNA) DNA: CGCCCTCCCGCCCCCTCGGGGCCCCGCCCCTGGGCCTCTCAGGCCCCTCCCCTGCGCTCC RNA: GGAGCGCAGGGGAGGGGCCUGAGAGGCCCAGGGGCGGGGCCCCGAGGGGGCGGGAGGGCG	binds		
C4D (C4-ssDNA + C4-ssRNA) (DNA:RNA) DNA: CCCGGGAGGCGGAGGTTGCAGTGAACCAAGATCGCGCCATTGCACTCCAGCCTGGG RNA: CCCAGGCUGGAGUGCAAUGGCGCGAUCUUGGUUCACUGCAACCUCCGCCUCCCGGG		binds	binds
